From patent publication US20260193293A1, “PEPTIDES CAPABLE OF INHIBITING PROTEIN-PROTEIN INTERACTIONS AT GABAB1A SUBUNIT AND USES THEREOF” (UNIVERSITY OF COPENHAGEN, priority 2022, published 2026)
Several values for one entry are separate records, joined by “and”; a condition that tells them apart may be missing. Equal values may be shown once. Values belong to the binder of their own block, whether it stands above or below them. Non-standard residues stand in square brackets, D forms with d. 2Nal = N[C@@H](Cc1ccc2ccccc2c1)C(=O)O; Sar = CNCC(=O)O

Columns and labels:
[1] = molecular target: Sushi domains (SD1/2) protein of the GABAB1a (GB1a) subunit, recombinant; assay: FP inhibition, six-point, crude peptide of the solution array
Chain of Sushi domains (SD1/2) protein of the GABAB1a (GB1a) subunit, recombinant (Q9Z0U4 29-158): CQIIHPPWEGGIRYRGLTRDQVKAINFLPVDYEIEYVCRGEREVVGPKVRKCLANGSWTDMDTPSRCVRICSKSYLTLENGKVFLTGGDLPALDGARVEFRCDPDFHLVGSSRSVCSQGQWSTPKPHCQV

[2] = molecular target: Sushi domains (SD1/2) protein of the GABAB1a (GB1a) subunit, recombinant; assay: FP competition
[3] = molecular target: Sushi domains (SD1/2) protein of GABAB1a (GB1a); assay: FP competition vs TAMRA AJAP-1probe
Chain of Sushi domains (SD1/2) protein of GABAB1a (GB1a) (Q9Z0U4 29-158): as above

[4] = molecular target: Sushi domains (SD1/2) protein of the GABAB1a (GB1a) subunit, recombinant; assay: FP competition, N-methylation scan
[5] = molecular target: Sushi domains (SD1/2) protein of the GABAB1a (GB1a) subunit, recombinant; assay: FP competition with AJAP-1probe
[6] = molecular target: Sushi domains (SD1/2) protein of the GABAB1a (GB1a) subunit, recombinant; assay: FP competition; end of the range assigned from the Ki values of Table 2
[7] = molecular target: Sushi domains (SD1/2) protein of the GABAB1a (GB1a) subunit, recombinant; assay: FP inhibition
[8] = molecular target: Sushi domains (SD1/2) protein of the GABAB1a (GB1a) subunit, recombinant; assay: FP competition; remark: listed apart in the source
[9] = molecular target: Sushi domains (SD1/2) protein of the GABAB1a (GB1a) subunit, recombinant; assay: FP competition; remark: listed apart in the source

Ki [1]: 78 nM
Ki [2]: 100 nM
Binder: Ac-EDDSWVWWGGADTD-NH2 [… (APPWT mutant D207W)]

Ki [3]: 161 nM
fold increased affinity against APPWT [4]: 3 fold
Ki [2]: 161 nM
B1: …(N-Me-G)ADTD (peptide)
peptide: Ac-EDDSDVWWG[Sar]ADTD-NH2
SMILES: CC(=O)N[C@@H](CCC(=O)O)C(=O)N[C@@H](CC(=O)O)C(=O)N[C@@H](CC(=O)O)C(=O)N[C@@H](CO)C(=O)N[C@@H](CC(=O)O)C(=O)N[C@H](C(=O)N[C@@H](Cc1c[nH]c2ccccc12)C(=O)N[C@@H](Cc1c[nH]c2ccccc12)C(=O)NCC(=O)N(C)CC(=O)N[C@@H](C)C(=O)N[C@@H](CC(=O)O)C(=O)N[C@H](C(=O)N[C@@H](CC(=O)O)C(N)=O)[C@@H](C)O)C(C)C

Ki [1]: 167 nM
Ki [2]: 108 nM
Binder: Ac-EDDSDVWWYGADTD-NH2 [… (APPWT mutant G211Y)]

Ki [5]: 244 nM
Ki [2]: 244 nM and 233 nM
Binder: Ac-EEDDSDVWWGGADTDYAD-NH2 [Peptide 36 (Ac-…-NH2)]

Ki [5]: 23 nM
Ki [2]: 26 nM
Binder: Ac-TETEFIAWGPTGDED-NH2 [peptide 15 (Ac-…-NH2)]

Ki [5]: 687 nM
Binder: Ac-DDSDVWWGGADTDYADG-NH2

Ki [5]: 637 nM
Binder: Ac-AIVWGPTVSREDGGD-NH2

fold loss of affinity against the untagged peptide [6]: 12 to 33 fold
Ki [2]: 107 nM
Binder: Ac-RRRRRRRREDDDWIDWYDSDDD-NH2 [R8-16 (Ac-…-NH2)]

fold higher affinity than 4R-16 [7]: 2 fold
Ki [2]: 12 nM
B2: R4-20 (Ac-RRRREDDD(2Nala)…-NH2) (peptide)
peptide: Ac-RRRREDDD[2Nal]IDWYDSDDD-NH2
SMILES: CC[C@H](C)[C@H](NC(=O)[C@H](Cc1ccc2ccccc2c1)NC(=O)[C@H](CC(=O)O)NC(=O)[C@H](CC(=O)O)NC(=O)[C@H](CC(=O)O)NC(=O)[C@H](CCC(=O)O)NC(=O)[C@H](CCCNC(=N)N)NC(=O)[C@H](CCCNC(=N)N)NC(=O)[C@H](CCCNC(=N)N)NC(=O)[C@H](CCCNC(=N)N)NC(C)=O)C(=O)N[C@@H](CC(=O)O)C(=O)N[C@@H](Cc1c[nH]c2ccccc12)C(=O)N[C@@H](Cc1ccc(O)cc1)C(=O)N[C@@H](CC(=O)O)C(=O)N[C@@H](CO)C(=O)N[C@@H](CC(=O)O)C(=O)N[C@@H](CC(=O)O)C(=O)N[C@@H](CC(=O)O)C(N)=O

Ki [5]: 2630 nM
Binder: Ac-DDSDVWWGG-NH2

Ki [5]: 5030 nM
Binder: Ac-DSADAEEDDSDVWWG-NH2 [peptide 11 (…)]

Ki [8]: 476 nM
Ki [2]: 762 nM
Binder: Ac-PWAIVWGPTVSRED-NH2 [PIANPWT (Ac-…-NH2)]

Ki [1]: 635 nM
Ki [9]: 557 nM
Binder: Ac-EDDSDVWWGGADTD-NH2 [APPWT (Ac-…-NH2)]
